Reference: patent publication US20230192897A1 (NUMAB THERAPEUTICS, published 2023)
Numbering of substitutions follows the chain as printed.

T1: mouse CD137-Fc chimeric protein (mouse, UniProt P20334 24-187, limits assumed)
T1 sequence (looked up): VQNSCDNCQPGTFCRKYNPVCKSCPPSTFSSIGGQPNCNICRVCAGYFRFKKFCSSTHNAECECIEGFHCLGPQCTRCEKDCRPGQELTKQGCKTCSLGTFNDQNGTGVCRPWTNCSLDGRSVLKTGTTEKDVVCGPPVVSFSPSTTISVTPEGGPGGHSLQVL

B1: PRO1059 (bispecific antibody, human IgG1, kappa, L234A L235A)
light: DIQMTQSPSSLSASVGDRVTITCQASQSINDYLAWYQQKPGKAPKLLIYKASTLASGVPSRFSGSGSGTDFTLTISSLQPEDFATYYCQQGYIITDIDNVFGTGTKVTVLGTVAAPSVFIFPPSDEQLKSGTASVVCLLNNFYPREAKVQWKVDNALQSGNSQESVTEQDSKDSTYSLSSTLTLSKADYEKHKVYACEVTHQGLSSPVTKSFNRGECGGGGSGGGGSIQMTQSPSSLSASVGDRVTITCQASQSINNVLAWYQQKPGKAPKLLIYRASTLASGVPSRFSGSGSGTDFTLTISSLQPEDFATYYCQSSYGNYGDFGTGTKVTVLGGGGGSGGGGSGGGGSGGGGSQVQLQESGPGLVKPSETLSLTCKVSGFSFSNSYWICWIRQPPGKGLEWIGCTFVGSSDSTYYANWAKGRVTISVDSSKNQFSLKLSSVTAADTAVYYCARHPSDAVYGYANNLWGQGTLVTVSS
heavy: QVQLQESGPGLVKPSETLSLTCKVSGFSFSSGYDMCWIRQPPGKGLEWIGCVVAGSVDITYYASWAKGRVTISVDSSKNQFSLKLSSVTAADTAVYYCARKDAYSDAFNLWGQGTLVTVSSASTKGPSVFPLAPSSKSTSGGTAALGCLVKDYFPEPVTVSWNSGALTSGVHTFPAVLQSSGLYSLSSVVTVPSSSLGTQTYICNVNHKPSNTKVDKRVEPKSCDKTHTCPPCPAPEAAGGPSVFLFPPKPKDTLMISRTPEVTCVVVDVSHEDPEVKFNWYVDGVEVHNAKTKPREEQYNSTYRVVSVLTVLHQDWLNGKEYKCKVSNKALGAPIEKTISKAKGQPREPQVYTLPPSREEMTKNQVSLTCLVKGFYPSDIAVEWESNGQPENNYKTTPPVLDSDGSFFLYSKLTVDKSRWQQGNVFSCSVMHEALHNHYTQKSLSLSPGK
notes: silent hIgG1 anti-PDL1 with anti-CD137 scFv on the light chain; also called 33-03-G02 IgG1 LC with 38-02-A04 sc01 scFv; Morrison-L
B2: PRO1123 (bispecific antibody)
chain: DIQMTQSPSSLSASVGDRVTITCQASQSINDYLAWYQQKPGKAPKLLIYKASTLASGVPSRFSGSGSGTDFTLTISSLQPEDFATYYCQQGYIITDIDNVFGTGTKVTVLGGGGGSQVQLQESGPGLVKPSETLSLTCKVSGFSFSNSYWICWVRQPPGKGLEWIGCTFVGSSDSTYYANWAKGRVTISVDSSKNQVSLKLSSVTAADTAVYFCARHPSDAVYGYANNLWGQGTLVTVSSGGGGSGGGGSGGGGSGGGGSIQMTQSPSSLSASVGDRVTITCQASQSINNVLAWYQQKPGKPPKLLIYRASTLASGVPSRFSGSGSGTDFTLTISSLQPEDFATYYCQSSYGNYGDFGTGTKVTVLGGGGGSQVQLQESGPGLVKPSETLSLTCKVSGFSFSSGYDMCWIRQPPGKGLEWIGCVVAGSVDITYYASWAKGRVTISVDSSKNQFSLKLSSVTAADTAVYYCARKDAYSDAFNLWGQGTLVTVSS
notes: scDb; also called 38-02-A04 sc05 IF scDb-i/33-03-G02 sc01 scDb-o
B3: PRO1124 (bispecific antibody)
chain: B2 chain with V140A, V190K, I261L
notes: scDb; also called 38-02-A04 sc06 Full scDb-i/33-03-G02 sc01 scDb-o
B4: PRO1058 (other)
chain: DIQMTQSPSSLSASVGDRVTITCQASQSINDYLAWYQQKPGKAPKLLIYKASTLASGVPSRFSGSGSGTDFTLTISSLQPEDFATYYCQQGYIITDIDNVFGTGTKVTVLGGGGGSQVQLQESGPGLVKPSETLSLTCKVSGFSFNNDYDMCWIRQPPGKGLEWIGCIDTGDGSTYYASWAKGRVTISVDSSKNQFSLKLSSVTAADTAVYYCAREAASSSGYGMGYFDLWGQGTLVTVSSGGGGSGGGGSGGGGSGGGGSIQMTQSPSSLSASVGDRVTITCQSSQSVYDNNWLAWYQQKPGKAPKLLIYRASNLASGVPSRFSGSGSGTDFTLTISSLQPEDFATYYCQGTYLSSNWYWAFGTGTKVTVLGGGGGSQVQLQESGPGLVKPSETLSLTCKVSGFSFSSGYDMCWIRQPPGKGLEWIGCVVAGSVDITYYASWAKGRVTISVDSSKNQFSLKLSSVTAADTAVYYCARKDAYSDAFNLWGQGTLVTVSSGGGGSGGGGSVVMTQSPSSLSASVGDRVTITCQASQIISSRSAWYQQKPGQPPKLLIYQASKLASGVPSRFSGSGSGTDFTLTISSLQPEDFATYYCQCTYIDSNFGAFGGGTKLTVLGGGGGSGGGGSGGGGSGGGGSEVQLVESGGGLVQPGGSLRLSCAASGFSFSSSYWICWVRQAPGKGLEWVGCVFTGDGTTYYASWAKGRFTISRDNSKNTVYLQMNSLRAEDTATYFCARPVSVYYYGMDLWGQGTLVTVSS
notes: trispecific scDb-scFv; also called 38-27-C05 sc01 scDb-i/33-03-G02 sc01 scDb-o/23-13-A01-sc03, sk17sh4

Tests used:
[1] = target: T2, CD137 on Jurkat NFkB reporter cells (human, UniProt Q07011 24-255); experiment: cell-based or functional assay
[2] = target: T3, human CD137 extracellular domain (human, UniProt Q07011 24-186); experiment: SPR, IgG format captured
T3 construct: also called CD137 (PeproTech, cat. 310-15)
Method: (§1) Affinity to PDL1 of the different species was determined by SPR measurements using a Biacore T200 device (GE Healthcare). An antibody specific for the Fc region of human IgGs was immobilized on a sensor chip (CM5 sensor chip, GE Healthcare) by amine-coupling. For all formats, with the exception of the Fc containing Morrison formats, PDL1-Fc chimeric protein from different species were captured by the immobilized antibody.
(§2) The Fc containing formats were directly captured by the antibody specific for the Fc region of human IgGs. Two-fold serial dilutions of PDL1 extracellular domain or CD137 extracellular domain ranging from 90 to 0.35 nM were tested for binding to the IgG captured on the biosensor chip. After each injection cycle, surfaces were regenerated with one injection of a 3 M MgCl2 solution.

[3] = target: human PDL1 extracellular domain (human, UniProt Q9NZQ7 19-238); experiment: SPR, IgG format captured
Method: as §1, §2

human PDL1 on cells = human PDL1 on cells (human, UniProt Q9NZQ7 19-290); experiment: cell-based or functional assay
biotinylated human PDL1 [4] = target: T4, biotinylated human PDL1 (human, UniProt Q9NZQ7 19-238, limits assumed, biotinylated); experiment: competition ELISA B7.1/PDL1
T4 construct: also called biotinylated PDL1
Method in brief: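 IC₅₀ was derived by four-parameter logistic fitting of reference-subtracted A450/690 readings. The signal came from streptavidin-polyHRP40 (10 ng/ml) with a 6-minute TMB reaction detecting biotinylated PDL1 bound to the plate. Pre-mixed samples sat 1 h at RT before a 1.5 h plate incubation.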

biotinylated human PDL1 [5] = target: T4, biotinylated human PDL1; experiment: competition ELISA PD-1/PDL1
[6] = target: cynomolgus CD137-Fc chimeric protein (cynomolgus monkey, UniProt A9YYE7 24-186); experiment: SPR
Method in brief: (§3)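 Kinetics were fitted with a one-to-one Langmuir model to give apparent ka, kd and KD. Binders at 0.12-90 nM (three-fold series) flowed 3 min, with 10 min dissociation and 3 M MgCl₂ regeneration, on a Biacore T200.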

Fc tagged human PDL1 = target: T5, Fc tagged human PDL1 (human, UniProt Q9NZQ7 19-239); experiment: SPR
T5 construct: Bought (Sino Biological, cat. 10084-H02H); captured on the SPR chip; also called PDL1-Fc chimeric protein
Method in brief: as §3

[7] = target: T1, mouse CD137-Fc chimeric protein; experiment: SPR
Method in brief: as §3

Fc tagged human CD137 = target: T6, Fc tagged human CD137 (human, UniProt Q07011 24-186); experiment: SPR
T6 construct: also called CD137-Fc chimeric protein
Method in brief: as §3

[8] = target: T2, CD137 on Jurkat NFkB reporter cells; experiment: cell-based or functional assay; remark: listed apart in the source
[9] = target: T2, CD137 on Jurkat NFkB reporter cells; experiment: cell-based or functional assay; remark: listed apart in the source
[10] = target: T2, CD137 on Jurkat NFkB reporter cells; experiment: cell-based or functional assay; remark: listed apart in the source
[11] = target: T2, CD137 on Jurkat NFkB reporter cells; experiment: cell-based or functional assay; remark: listed apart in the source
[12] = target: T2, CD137 on Jurkat NFkB reporter cells; experiment: cell-based or functional assay; remark: listed apart in the source

Binder	IC50 (ng/ml), NFkB reporter, CHO-PD-L1 [1]	IC50 (ng/ml), NFkB reporter, HCC827 + IFNg [1]	IC50 (ng/ml), NFkB reporter, HCC827 - IFNg [1]	max. activation (%), NFkB reporter, CHO-PD-L1 [1]	max. activation (%), NFkB reporter, HCC827 + IFNg [1]	max. activation (%), NFkB reporter, HCC827 - IFNg [1]	rel. IC50 (urelumab/test), NFkB reporter, CHO-PD-L1 [1]	rel. IC50 (urelumab/test), NFkB reporter, HCC827 + IFNg [1]	rel. IC50 (urelumab/test), NFkB reporter, HCC827 - IFNg [1]	koff [6]	koff (Fc tagged human PDL1)	kon (Fc tagged human PDL1)	kon [7]	Kd (Fc tagged human CD137)	koff (Fc tagged human CD137)	kon (Fc tagged human CD137)	EC50, NFkB reporter, HCC827 without IFNg [8]	Top of curve fit, NFkB reporter, HCC827 without IFNg [8]	EC50, NFkB reporter, CHO-PDL1 [9]	Top of curve fit, NFkB reporter, CHO-PDL1 [9]	further results
B1	–	–	–	–	–	–	–	–	–	–	–	–	–	–	–	–	–	–	–	–	IC50 (ng/ml), NFkB reporter, CHO-PD-L1, 24 h [1]: 289 ng/mL; rel. IC50 (urelumab/test), NFkB reporter, CHO-PD-L1, 24 h [1]: 0.09 fold; Kd [2]: 2.3 nM; koff [2]: 0.00042 s⁻¹; kon [2]: 180000 M⁻¹ s⁻¹; koff [3]: 6.5e-05 s⁻¹; IC50 (ng/ml), NF-AT potency assay (human PDL1 on cells): 93.8 ng/mL; rel. IC50 (avelumab/test) (human PDL1 on cells): 0.52 fold; IC50 (biotinylated human PDL1 [4]): 0.029 µg/mL; rel. IC50 (IC50 avelumab/IC50 test) (biotinylated human PDL1 [4]): 0.3 fold; IC50 (biotinylated human PDL1 [5]): 0.00454 µg/mL; rel. IC50 (IC50 avelumab/IC50 test) (biotinylated human PDL1 [5]): 0.37 fold
B2	5.75 ng/mL	11.4 ng/mL	16.1 ng/mL	219%	154%	123%	18.1 fold	12.2 fold	6.82 fold	0.00033 s⁻¹	0.00017 s⁻¹	2.3e+06 M⁻¹ s⁻¹	65000 M⁻¹ s⁻¹	0.58 nM	0.00027 s⁻¹	310000 M⁻¹ s⁻¹	0.0161 µg/mL	123	0.00575 µg/mL	219	Kd [6]: 1.3 nM; kon [6]: 260000 M⁻¹ s⁻¹; Kd [7]: 410 nM; koff [7]: 0.027 s⁻¹; EC50, NFkB reporter, HCC827 with IFNg [10]: 0.0119 µg/mL; Top of curve fit, NFkB reporter, HCC827 with IFNg [10]: 154
B3	3.68 ng/mL	4.83 ng/mL	5.62 ng/mL	229%	188%	113%	23.5 fold	22.4 fold	19.9 fold	0.00033 s⁻¹	0.0002 s⁻¹	3.1e+06 M⁻¹ s⁻¹	200000 M⁻¹ s⁻¹	≤ 0.015 nM	< 1e-05 s⁻¹	680000 M⁻¹ s⁻¹	0.00562 µg/mL	113	0.00368 µg/mL	229	fold improvement of affinity against PRO885 (Fc tagged human CD137): > 200 fold; EC50, NFkB reporter, HCC827 with IFNg [10]: 0.00483 µg/mL; Top of curve fit, NFkB reporter, HCC827 with IFNg [10]: 188
B4	–	–	–	–	–	–	–	–	–	–	–	–	–	–	0.0021 s⁻¹	–	–	–	–	–	IC50 (ng/ml), NFkB reporter, CHO-PD-L1, 24 h, +HSA [1]: 121 ng/mL; max. activation (%), NFkB reporter, CHO-PD-L1, 24 h, +HSA [1]: 36.2%; rel. IC50 (urelumab/test), NFkB reporter, CHO-PD-L1, 24 h, +HSA [1]: 0.64 fold; EC50, NFkB reporter, CHO-PDL1, 6 h, +HSA [11]: 0.0709 µg/mL; EC50, NFkB reporter, CHO-PDL1, 24 h, +HSA [12]: 0.121 µg/mL; binding result (Fc tagged human PDL1): binds
